We go through 5 molecules from patent US20250277031A1 (BEIJING HANMI PHARMACEUTICAL, published 2025).

Test [1] concerns the target T1, recombinant human CD47 (human, UniProt Q08722 19-139).
T1 construct: also called antigen CD47
The experiment in a line: ELISA, coated recombinant human CD47. The procedure:
(§1) ELISA was used to screen the anti-human CD47 antibodies in the hybridoma culture supernatants. A 96-well high-adsorption ELISA plate (Costar, catalog number 42592) was coated with 1 μg/mL of the recombinant human CD47 (Sino Biological Inc.) at 100 μL per well using carbonate buffer solution, pH=9.6 at 4° C. overnight. The plate was washed 5 times with PBST, and then blocked using PBST with 1% BSA, 300 μL/well, and incubated at 25° C. for 1 hour, and then washed 5 times with PBST. The culture supernatant samples and positive serum control were added, 100 μL/well, incubated at 25° C. for 1 hour, and then washed 5 times with PBST. The horseradish peroxidase-labeled anti-mouse IgG antibody (Abcam, catalog number Ab7068) diluted 1:10000 in PBST with 1% BSA was then added, 100 μL per well, and incubated at 25° C. for 1 hour. The plate was washed 5 times with PBST. The colorimetric substrate TMB was added, 100 μL/well, and developed at room temperature for 10 minutes. 1M H₂SO₄ was added, 100 μL/well, to stop the development. The absorbance at 450 nm was read on a microplate reader. Positive clones capable of secreting the anti-human CD47 selection antibodies were selected according to the magnitude of OD₄₅₀ₙₘ.
For orientation: ELISA stands for enzyme-linked immunosorbent assay.

Test [2] addresses T2, recombinant human CD47-Fc protein (ACROBiosystems, catalog number CD7-H52A5) (human, UniProt Q08722 19-139).
T2 construct: bought; not shown: Fc part of a bought fusion protein, not described
The experiment in a line: competition ELISA, coated CD47-Fc, competitor biotin-labelled SIRPα 2 nM. The procedure:
ELISA was used to determine whether the anti-human CD47 selection antibodies secreted by the positive clones can block the binding of CD47/SIRPα. A 96-well high-adsorption ELISA plate was coated with 1 μg/mL of the recombinant human CD47-Fc (ACROBiosystems) at 100 μL per well using carbonate buffer solution, pH=9.6 at 4° C. overnight. The plate was washed 5 times with PBST, and then blocked using PBST with 1% BSA, 300 μL/well, and incubated at 25° C. for 1 hour, and then washed 5 times with PBST. The anti-human CD47 selection antibody samples were added, 50 μL/well, the biotin-labelled SIRPα (ACROBiosystems) was added at a concentration of 4 nM (a final concentration of 2 nM), 50 μL/well, incubated at 25° C. for 90 minutes, and then washed 5 times with PBST. The Streptavidin-HRP (BD Pharmingen, catalog number 554066) diluted 1:1000 in PBST with 1% BSA was then added, 100 μL per well, and incubated at 25° C. for 1 hour. The plate was washed 5 times with PBST. The colorimetric substrate TMB was added, 100 μL/well, and developed at room temperature for 10 minutes. 1M H₂SO₄ was added, 100 μL/well, to stop the development. The absorbance at 450 nm was read on a microplate reader. The anti-human CD47 selection antibodies capable of inhibiting the binding of the human CD47-Fc/biotin-labelled SIRPα have a neutralizing activity. […]

Test [3] deals with T1, recombinant human CD47. The experiment in a line: ELISA, plate coated with recombinant human CD47, OD450.
The target of test [4] is T2, recombinant human CD47-Fc protein …. The experiment in a line: blocking ELISA: plate coated with human CD47-Fc, biotin-labelled SIRPα as the blocked ligand, falling OD450 curve; the sheet labels the half-maximal value EC50.
Test [5] addresses T1, recombinant human CD47. In words: SPR, Biacore X100, antibody captured on Protein A chip, CD47 as analyte. The text has this: Biacore X100 instrument (purchased from GE) was used to detect the kinetic constant of the chimeric anti-human CD47 monoclonal antibodies binding to its antigen human CD47. This instrument utilizes optical surface plasmon resonance technology to detect the association and dissociation between the molecules coated on the biochip and the molecules to be tested. The main reagent used is Protein A chip (GE Healthcare, 29-1275-57). The experimental procedure is briefly described as follows: the chimeric anti-human CD47 antibodies were diluted in running buffer (1×HBS-EP+10 mM HEPES, 150 mM NaCl, 3 mM EDTA, 0.05% surfactant P20, pH7.4). During the capture-binding phase, the antibodies at a concentration of 2 μg/mL were injected for 60 seconds at a speed of 10 μL/min. During the binding phase, the antigen CD47 was diluted into multiple concentrations with running buffer, injected for 120 seconds at a speed of 30 μL/min respectively. During the dissociation phase, running buffer was injected for 600 seconds at a speed of 10 μL/min. The regeneration condition is 10 mM glycinate solution, pH1.5. Association kinetic constants and dissociation kinetic constants were analyzed and calculated by Biacore X100 evaluation software. The association kinetic constants, dissociation kinetic constants and dissociation equilibrium constants of the chimeric anti-human CD47 antibodies were shown in Table 7.
As mentioned above, Biacore X100 instrument was used to detect the binding kinetic constant of the humanized anti-human CD47 monoclonal antibodies to its antigen human CD47. The association kinetic constants, dissociation kinetic constants and dissociation equilibrium constants of the humanized anti-human CD47 antibodies were shown in Table 10.
(In general: SPR reads the build-up and loss of mass on a sensor chip optically.)

In test [6] the target is T3, recombinant human B7-H2 (ACROBiosystems) (human, UniProt O75144 19-258, limits assumed).
T3 construct: counted here as a B7 family member
T3 sequence (looked up): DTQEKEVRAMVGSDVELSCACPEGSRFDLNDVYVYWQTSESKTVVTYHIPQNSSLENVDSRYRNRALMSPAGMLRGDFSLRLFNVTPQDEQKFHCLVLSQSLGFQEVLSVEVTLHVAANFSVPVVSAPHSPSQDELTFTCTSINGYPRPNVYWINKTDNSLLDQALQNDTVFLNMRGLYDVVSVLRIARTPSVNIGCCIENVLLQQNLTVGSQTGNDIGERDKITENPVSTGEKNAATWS
In words: ELISA, coated recombinant protein. The procedure:
(§2) Binding specificity of the chimeric anti-human CD47 mAbs was determined by ELISA. A 96-well high-adsorption ELISA plate was coated with 1 μg/mL of the recombinant human PD1, CD28, CTLA4, ICOS, BTLA, CD47, PD-L2, CD80, CD86, B7-H2, CD47, SIRPα and SIRPγ (all from ACROBiosystems), at 100 μL per well using carbonate buffer solution, pH=9.6 at 4° C. overnight. The plate was washed 5 times with PBST, and then blocked using PBST with 1% BSA, 300 μL/well, and incubated at 25° C. for 1 hour, and then washed 5 times with PBST. The chimeric anti-human CD47 mAb samples serially diluted in PBST with 1% BSA and the control CC-90002 and the isotype control were added, 100 μL/well, incubated at 25° C. for 1 hour, and then washed 5 times with PBST. The horseradish peroxidase-labeled anti-human IgG antibody (Chemicon, catalog number AP309P) diluted 1:10000 in PBST with 1% BSA was then added, 100 μL per well, and incubated at 25° C. for 1 hour. The plate was washed 5 times with PBST. The colorimetric substrate TMB was added, 100 μL/well, and developed at room temperature for 10 minutes. 1M H₂SO₄ was added, 100 μL/well, to stop the development. The absorbance at 450 nm was read on a microplate reader.

Test [7] has as its target recombinant human SIRPγ (ACROBiosystems) (human, UniProt Q9P1W8 29-360, limits assumed). In words: ELISA, coated recombinant protein. The method, then:
as §2

For test [8], the target named is T2, recombinant human CD47-Fc protein …. The experiment in a line: blocking ELISA: plate coated with human CD47-Fc, 2 nM biotin-labelled SIRPα as the blocked ligand, falling OD450 curve; the sheet labels the half-maximal value EC50. The method, then:
A 96-well high-adsorption ELISA plate was coated with 1 μg/mL of the recombinant human CD47-Fc (ACROBiosystems) at 100 μL per well using carbonate buffer solution, pH=9.6 at 4° C. overnight. The plate was washed 5 times with PBST, and then blocked using PBST with 1% BSA, 300 μL/well, and incubated at 25° C. for 1 hour, and then washed 5 times with PBST. The anti-human CD47 antibody samples were added, 50 μL/well, the biotin-labelled SIRPα (ACROBiosystems) was added at a concentration of 4 nM (a final concentration of 2 nM), 50 μL/well, incubated at 25° C. for 90 minutes, and then washed 5 times with PBST. The Streptavidin-HRP (BD Pharmingen, catalog number 554066) diluted 1:1000 in PBST with 1% BSA was then added, 100 μL per well, and incubated at 25° C. for 1 hour. The plate was washed 5 times with PBST. The colorimetric substrate TMB was added, 100 μL/well, and developed at room temperature for 10 minutes. 1M H₂SO₄ was added, 100 μL/well, to stop the development. The absorbance at 450 nm was read on a microplate reader.

Test [9] deals with T1, recombinant human CD47. The experiment in a line: ELISA, plate coated with 1 µg/mL recombinant human CD47, OD450. The method, then:
as §1, with “A” for “ELISA was used to screen the anti-human CD47 antibodies in the hybridoma culture supernatants. A”, “plate” for “plate (Costar, catalog number 42592)”, “anti-human CD47 antibody” for “culture supernatant”, “the” for “positive serum”, “control CC-90002 (a patent sequence from WO2016109415)” for “control”, “reader.” for “reader. Positive clones capable of secreting the anti-human CD47 selection antibodies were selected according to the magnitude of OD₄₅₀ₙₘ.”

T2 sequence (Q08722 19-139 limits assumed): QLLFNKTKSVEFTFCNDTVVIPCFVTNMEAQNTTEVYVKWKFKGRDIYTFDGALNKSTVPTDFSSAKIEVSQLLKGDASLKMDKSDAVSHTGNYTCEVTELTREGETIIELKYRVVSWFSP
T1 sequence (Q08722 19-139 limits assumed): as above
Sequence of recombinant human SIRPγ (ACROBiosystems) (Q9P1W8 29-360 limits assumed): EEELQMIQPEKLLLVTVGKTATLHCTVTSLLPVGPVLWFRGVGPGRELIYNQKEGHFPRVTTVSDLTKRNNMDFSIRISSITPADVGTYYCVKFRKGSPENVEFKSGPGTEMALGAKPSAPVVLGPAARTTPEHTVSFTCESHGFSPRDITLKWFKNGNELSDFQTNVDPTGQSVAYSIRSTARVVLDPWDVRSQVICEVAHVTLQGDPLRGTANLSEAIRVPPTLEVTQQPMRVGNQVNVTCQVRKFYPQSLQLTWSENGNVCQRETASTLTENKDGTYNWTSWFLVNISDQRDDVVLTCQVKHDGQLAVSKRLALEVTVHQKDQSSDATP

B1: anti-human CD47 murine monoclonal antibody secreted by clone CD47-18-5 (antibody, V domains shown)
VH: EVQLQQSGAELVKPGASVKLSCTASGFNIEDIYMHWVKQRPEQGLEWIGRIDPANDNTKYGPKLQGRATITADTSSNTAYLQLSGLTSEDTGVYYCVRRIPTDIMDYWGPGTSVTVSS
VL: DIVMTQSQKFMSTSVGDRVSITCKASQNVRTSIAWYQQKSGQSPKTLIYLASNRHTGVPDRFTGSGSGTDFTLTISNVQSEDLADYFCLQHWNYPFTFGSGTKLEIK
notes: murine hybridoma antibody
The term EC50 denotes the concentration at which the effect is half-maximal. The term IC50 denotes the midpoint of a concentration-inhibition curve. B1: the EC50 with recombinant human CD47 [1] stood at 0.252 nM. Moreover, in test [2], the IC50 came to 1.48 nM.

B2: anti-human CD47 murine monoclonal antibody secreted by clone CD47-18-10 (antibody, V domains shown)
VH: EVQLQQSGAELVKPGASVKLSCTASGFNIEDIYMHWVKQRPEQGLEWIGRIDPANDNTKYGPKFQGRATMTADTSSNTAYLQLSGLTSEDTGVYYCVRRITTDVMDYWGQGTSVTVSS
VL: DIVMTQSQKFMSTSVGDRVSITCKASQNVRTSIAWYQQKPGQSPKTLIYLASNRHTGVPDRFTGSGSGTDFTLTISNVQSEDLADYFCLQHWNYPFTFGSGTKLEIK
notes: murine hybridoma antibody
In the case of B2, in the test with recombinant human CD47 [1], the EC50 was 0.273 nM. In test [2], the IC50 came to 2.1 nM.

B3: humanized anti-human CD47 monoclonal antibody BH3008b (antibody, human IgG4 S228P, kappa, V domains shown)
VH: QVQLVQSGAEVKKPGSSVKVSCKASGFNIEDIYMHWVRQAPGQGLEWMGRIDPANDNTKYGPKLQGRVTITADTSTNTAYMELSSLRSEDTAVYYCVRRIPTDIMDYWGQGTTVTVSS
VL: DIQMTQSPSSLSASVGDRVTITCKASQNVRTSIAWYQQKPGKAPKTLIYLASNRHTGVPSRFSGSGSGTEFTLTISNLQPEDFATYYCLQHWNYPFTFGQGTKLEIKR
notes: variable regions of Z11; the summary calls the humanized antibody an IgG4; also called Z11
A word on the Kd: it is the concentration at which binding is half-saturated. As a reminder, the koff is the rate constant with which the complex falls apart. Usually kon stands for a measure of how fast the partners come together. With B3, the EC50 with recombinant human CD47 [3] was 0.035 nM. The IC50 in test [4] was determined as 0.781 nM. Moreover, in the test with recombinant human CD47 [5], the Kd amounted to 1.17 nM, the koff worked out at 0.00117 s⁻¹ and the kon was 998000 M⁻¹ s⁻¹.

B4: humanized anti-human CD47 monoclonal antibody BH3011b (antibody, human IgG4 S228P, kappa, V domains shown)
VH: QVQLVQSGAEVKKPGSSVKVSCKASGFNIEDIYMHWVRQAPGQGLEWMGRIDPANDNTKYGPKLQGRVTITADTSTNTAYMELSSLRSEDTAVYYCVRRIPTDIMDYWGQGTTVTVSS
VL: DIQMTQSPSSLSASVGDRVTITCKASQNVRTSIAWYQQKPGKAPKTLIYLASNRHTGVPSRFSGSGSGTEFTLTISNLQPEDFATYFCLQHWNYPFTFGQGTKLEIKR
notes: variable regions of Z12; the summary calls the humanized antibody an IgG4; also called Z12; BH301Tb
Consider B4, for which the EC50 with recombinant human CD47 [3] turned out to be 0.029 nM. The IC50 in [4] was 0.741 nM. For the same molecule, in the test with recombinant human CD47 [5], the Kd amounted to 0.833 nM, the off-rate (koff) is 0.000852 s⁻¹ and the kon was determined as 1.02e+06 M⁻¹ s⁻¹.

B5: chimeric anti-human CD47 monoclonal antibody mAb-18-10 N297A (antibody, human IgG1, kappa, N297A)
heavy: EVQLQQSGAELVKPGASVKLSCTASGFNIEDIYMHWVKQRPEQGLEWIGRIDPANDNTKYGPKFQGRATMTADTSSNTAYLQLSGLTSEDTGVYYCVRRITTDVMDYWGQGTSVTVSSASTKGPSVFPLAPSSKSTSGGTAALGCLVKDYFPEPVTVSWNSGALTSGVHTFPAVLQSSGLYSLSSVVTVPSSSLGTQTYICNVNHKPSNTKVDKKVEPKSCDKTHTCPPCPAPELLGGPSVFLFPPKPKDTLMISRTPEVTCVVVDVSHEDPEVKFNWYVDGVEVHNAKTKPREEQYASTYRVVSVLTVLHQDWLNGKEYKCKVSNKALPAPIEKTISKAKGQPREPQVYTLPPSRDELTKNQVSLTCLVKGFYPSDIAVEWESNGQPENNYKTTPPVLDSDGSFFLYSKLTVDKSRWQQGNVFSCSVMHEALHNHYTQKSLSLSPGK
light: DIVMTQSQKFMSTSVGDRVSITCKASQNVRTSIAWYQQKPGQSPKTLIYLASNRHTGVPDRFTGSGSGTDFTLTISNVQSEDLADYFCLQHWNYPFTFGSGTKLEIKRTVAAPSVFIFPPSDEQLKSGTASVVCLLNNFYPREAKVQWKVDNALQSGNSQESVTEQDSKDSTYSLSSTLTLSKADYEKHKVYACEVTHQGLSSPVTKSFNRGEC
notes: no further substitution applied
For B5, the binding result in test [6] and in test [7] was “no binding” each time. Moreover, the IC50 in [8] came out at 1.69 nM. Also, the EC50 with recombinant human CD47 [9] stood at 0.031 nM.
